Target: Toll-like receptor 2 (TLR2), endogenous in HT29 cells (human (endogenous in HT29)) (UniProt O60603)
UniProt O60603, sequence (O60603 21-784): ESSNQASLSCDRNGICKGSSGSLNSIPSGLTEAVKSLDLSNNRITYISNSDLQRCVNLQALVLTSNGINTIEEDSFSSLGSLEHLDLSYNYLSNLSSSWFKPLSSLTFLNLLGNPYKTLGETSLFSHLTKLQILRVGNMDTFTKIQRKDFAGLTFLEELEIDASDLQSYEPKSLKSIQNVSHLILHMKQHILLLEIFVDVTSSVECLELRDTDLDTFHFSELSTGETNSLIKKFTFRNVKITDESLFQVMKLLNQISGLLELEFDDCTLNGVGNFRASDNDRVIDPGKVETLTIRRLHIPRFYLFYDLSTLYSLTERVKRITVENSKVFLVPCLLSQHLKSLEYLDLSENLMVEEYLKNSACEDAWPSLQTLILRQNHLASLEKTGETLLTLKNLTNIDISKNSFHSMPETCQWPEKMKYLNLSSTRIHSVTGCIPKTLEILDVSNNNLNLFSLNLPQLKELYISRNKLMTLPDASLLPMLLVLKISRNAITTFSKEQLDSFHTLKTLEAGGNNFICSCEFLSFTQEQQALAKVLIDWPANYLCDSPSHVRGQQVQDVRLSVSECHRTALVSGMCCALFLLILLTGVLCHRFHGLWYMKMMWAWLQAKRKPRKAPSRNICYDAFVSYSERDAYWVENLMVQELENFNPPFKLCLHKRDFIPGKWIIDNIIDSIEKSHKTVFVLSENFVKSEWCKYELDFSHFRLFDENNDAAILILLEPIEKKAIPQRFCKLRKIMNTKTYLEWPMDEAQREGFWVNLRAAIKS

GbpA domain 4, purified recombinant (domain or fragment)
IL-8 secreted by HT29 cells treated with 250 ng GbpA 4 for 8 h (sandwich ELISA): 443 pg/mL

Reference: publication PMC11239689
